# Laboratory results taken from patent publication US20050065082.
# T1: GST-KIAA1491 complete (N-terminal GST-fusion protein of KIAA1491 complete)
# T1 chain: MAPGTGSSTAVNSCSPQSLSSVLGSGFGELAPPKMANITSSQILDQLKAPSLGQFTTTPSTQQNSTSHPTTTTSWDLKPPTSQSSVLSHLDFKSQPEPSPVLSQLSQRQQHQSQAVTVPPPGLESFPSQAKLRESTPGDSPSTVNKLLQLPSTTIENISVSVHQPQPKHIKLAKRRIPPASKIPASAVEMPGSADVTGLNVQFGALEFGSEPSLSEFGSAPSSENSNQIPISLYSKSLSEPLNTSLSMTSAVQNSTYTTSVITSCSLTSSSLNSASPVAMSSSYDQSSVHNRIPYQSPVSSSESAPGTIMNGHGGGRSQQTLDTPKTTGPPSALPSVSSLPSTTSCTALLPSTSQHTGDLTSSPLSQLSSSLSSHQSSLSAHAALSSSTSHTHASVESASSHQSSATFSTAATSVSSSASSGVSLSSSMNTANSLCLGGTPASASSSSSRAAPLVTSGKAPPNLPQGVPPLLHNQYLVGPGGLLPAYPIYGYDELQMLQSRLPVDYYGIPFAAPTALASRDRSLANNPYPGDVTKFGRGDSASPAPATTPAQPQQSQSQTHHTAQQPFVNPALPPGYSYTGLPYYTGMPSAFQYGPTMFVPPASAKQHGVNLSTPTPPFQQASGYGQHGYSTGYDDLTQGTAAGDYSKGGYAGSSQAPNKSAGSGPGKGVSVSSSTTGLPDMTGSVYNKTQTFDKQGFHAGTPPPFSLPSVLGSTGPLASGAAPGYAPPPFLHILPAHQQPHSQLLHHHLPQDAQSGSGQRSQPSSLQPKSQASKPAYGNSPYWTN
# T2: GST-BPL1 (N-terminal GST fusion protein of human BPL1, holocarboxylase synthetase)
# T2 chain: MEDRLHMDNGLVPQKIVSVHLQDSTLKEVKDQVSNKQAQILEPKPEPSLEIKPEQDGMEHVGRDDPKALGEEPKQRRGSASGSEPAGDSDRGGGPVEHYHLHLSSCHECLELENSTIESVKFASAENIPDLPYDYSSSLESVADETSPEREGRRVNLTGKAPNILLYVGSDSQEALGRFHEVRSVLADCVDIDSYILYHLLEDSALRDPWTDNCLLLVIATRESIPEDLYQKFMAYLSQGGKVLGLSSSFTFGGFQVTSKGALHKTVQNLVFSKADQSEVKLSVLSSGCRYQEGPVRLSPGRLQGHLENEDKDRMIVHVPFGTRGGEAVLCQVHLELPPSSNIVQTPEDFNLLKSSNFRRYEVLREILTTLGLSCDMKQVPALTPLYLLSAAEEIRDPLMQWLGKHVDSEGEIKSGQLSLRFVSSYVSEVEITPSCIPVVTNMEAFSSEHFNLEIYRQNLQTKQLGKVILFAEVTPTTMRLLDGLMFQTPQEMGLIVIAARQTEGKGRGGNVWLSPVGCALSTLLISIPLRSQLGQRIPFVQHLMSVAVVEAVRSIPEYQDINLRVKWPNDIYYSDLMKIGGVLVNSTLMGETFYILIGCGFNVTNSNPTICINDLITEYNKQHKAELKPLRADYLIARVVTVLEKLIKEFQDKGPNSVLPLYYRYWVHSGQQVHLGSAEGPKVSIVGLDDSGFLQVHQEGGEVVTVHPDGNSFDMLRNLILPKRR
# B1: His-JNK3 (activated human JNK3 (JNK3α1) with an N-terminal histidine-tag) (protein)
# chain: MSLHFLYYCSEPTLDVKIAFCQGFDKQVDVSYIAKHYNMSKSKVDNQFYSVEVGDSTFTVLKRYQNLKPIGSGAQGIVCAAYDAVLDRNVAIKKLSRPFQNQTHAKRAYRELVLMKCVNHKNIISLLNVFTPQKTLEEFQDVYLVMELMDANLCQVIQMELDHERMSYLLYQMLCGIKHLHSAGIIHRDLKPSNIVVKSDCTLKILDFGLARTAGTSFMMTPYVVTRYYRAPEVILGMGYKENVDIWSVGCIMGEMVRHKILFPGRDYIDQWNKVIEQLGTPCPEFMKKLQPTVRNYVENRPKYAGLTFPKLFPDSLFPADSEHNKLKASQARDLLSKMLVIDPAKRISVDDALQHPYINVWYDPAEVEAPPPQIYDKQLDEREHTIEEWKELIYKEVMNSEEKTKNGVVKGQPSPSAQVQQ
# Legend:
# [1] = molecular target: GST (glutathione S-transferase) [GST: P08515]
# [2] = molecular target: GST-BMAL1 (N-terminal GST fusion protein of human BMAL1; BMAL1b was used)
# GST-BMAL1 (N-terminal GST fusion protein of human BMAL1; BMAL1b was used), sequence (chain, as listed by the source): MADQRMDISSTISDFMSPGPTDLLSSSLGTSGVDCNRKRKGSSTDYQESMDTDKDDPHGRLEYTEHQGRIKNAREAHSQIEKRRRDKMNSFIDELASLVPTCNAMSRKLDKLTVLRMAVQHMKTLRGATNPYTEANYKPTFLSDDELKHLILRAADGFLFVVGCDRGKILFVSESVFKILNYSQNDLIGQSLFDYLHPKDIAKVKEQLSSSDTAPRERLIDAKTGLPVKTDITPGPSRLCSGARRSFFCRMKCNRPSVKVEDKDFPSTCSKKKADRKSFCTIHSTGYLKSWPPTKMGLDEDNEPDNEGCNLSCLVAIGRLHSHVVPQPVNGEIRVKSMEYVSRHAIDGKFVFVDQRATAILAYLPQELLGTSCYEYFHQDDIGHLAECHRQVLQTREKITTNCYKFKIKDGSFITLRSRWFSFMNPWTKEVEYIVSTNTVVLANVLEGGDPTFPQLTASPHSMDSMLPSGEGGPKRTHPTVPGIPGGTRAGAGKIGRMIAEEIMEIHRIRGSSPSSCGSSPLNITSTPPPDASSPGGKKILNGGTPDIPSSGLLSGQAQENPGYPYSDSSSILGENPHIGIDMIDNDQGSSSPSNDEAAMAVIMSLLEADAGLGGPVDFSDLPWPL
# [3] = molecular target: GST-KIAA0596CT (N-terminal GST fusion protein of human KIAA0596CT, the C-terminal region, amino acids 639 to 1217, of KIAA0596) [GST: P08515]
# [4] = molecular target: T1, GST-KIAA1491 complete (N-terminal …)
# [5] = molecular target: T2, GST-BPL1 (N-terminal GST fusion protein …)
protein,measurement,setting,value
B1,"Relative Strength (%) of the phosphorylated GST-c-Jun (1-79) band, 1.0 µg added protein (none added = 100)",[1],92.7%
same,"Relative Strength (%) of the phosphorylated GST-c-Jun (1-79) band, 2.0 µg added protein (none added = 100)",[1],93.6%
same,"Relative Strength (%) of the phosphorylated GST-c-Jun (1-79) band, 1.0 µg added protein (none added = 100)",[2],15.3%
same,"Relative Strength (%) of the phosphorylated GST-c-Jun (1-79) band, 2.0 µg added protein (none added = 100)",[2],4.7%
same,"phosphorylation of GST-BMAL1 by JNK3 (in vitro kinase assay, [γ-32P] ATP, autoradiography)",[2],the phosphorylation of GST-BMAL1 by JNK3 was observed ... the phosphorylation was dependent on the dose of JNK3
same,"Relative Strength (%) of the phosphorylated GST-c-Jun (1-79) band, 1.0 µg added protein (none added = 100)",[3],70.6%
same,"Relative Strength (%) of the phosphorylated GST-c-Jun (1-79) band, 2.0 µg added protein (none added = 100)",[3],33.5%
same,"Relative Strength (%) of the phosphorylated GST-c-Jun (1-79) band, 1.0 µg added protein (none added = 100)",[4],71.5%
same,"Relative Strength (%) of the phosphorylated GST-c-Jun (1-79) band, 2.0 µg added protein (none added = 100)",[4],67.1%
same,"phosphorylation of GST-KIAA1491 complete by JNK3 (in vitro kinase assay, [γ-32P] ATP, autoradiography)",[4],GST-KIAA1491 complete were phosphorylated by JNK3 ... the phosphorylation was dependent on the dose of JNK3
same,"Relative Strength (%) of the phosphorylated GST-c-Jun (1-79) band, 1.0 µg added protein (none added = 100)",[5],81.6%
same,"Relative Strength (%) of the phosphorylated GST-c-Jun (1-79) band, 2.0 µg added protein (none added = 100)",[5],59.7%
same,"phosphorylation of GST-BPL1 by JNK3 (in vitro kinase assay, [γ-32P] ATP, autoradiography)",[5],The phosphorylation of GST-BPL1 by JNK3 was observed. Since the phosphorylation was dependent on the dose of JNK3
